# Measurements reported in the supplement of paper PMC7125110.
# ± gives the standard error. For part of these data: This sample holds only a part of the variants without activity.
# B1: glmS ribozyme (parent)
# chain: AUAAAAGCGCCAGAACUACAGAAAUGUAGUUGACGAGGAGGAGGUUUAUCGAAUUUUCGGCGGAUGCCUCCAAA
# What was measured:
# Details in all cases: with glucosamine-6-phosphate
# glucosamine-6-phosphate [1] = variants of: B1; assay: kcat; higher = faster cleavage; RNA array
# In short: (§1)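 The measurements used barcoded ribozyme variants on sequenced MiSeq chips, transcribed in situ by E. coli RNA polymerase and tracked at 37 °C with a hybridised Cy3 probe. Glucosamine-6-phosphate, 40 μM to 10 mM in HEPES/KCl/Mg(OAc)2 buffer, was flowed in while tiles were imaged over ~14 h. Baseline-normalised signals, also normalised to non-cleaving reference variants, gave per-tile medians that were fit to one- or two-exponential decays for kobs. kcat and KM resulted from weighted Michaelis–Menten fits across concentrations.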
# glucosamine-6-phosphate [2] = variants of: B1; assay: KM; higher = weaker cofactor use; RNA array
# In short: as §1
# glucosamine-6-phosphate [3] = variants of: B1; assay: self-cleavage kobs at 640 uM GlcN6P; higher = faster cleavage; RNA array
# In short: as §1
# glucosamine-6-phosphate [4] = variants of: B1; assay: self-cleavage kobs at 2500 uM GlcN6P; higher = faster cleavage; RNA array
# In short: as §1
# glucosamine-6-phosphate [5] = variants of: B1; assay: self-cleavage kobs at 10000 uM GlcN6P; higher = faster cleavage; RNA array
# In short: as §1
# glucosamine-6-phosphate [6] = variants of: B1; assay: self-cleavage kobs at 160 uM GlcN6P; higher = faster cleavage; RNA array
# In short: as §1
# glucosamine-6-phosphate [7] = variants of: B1; assay: self-cleavage kobs at 40 uM GlcN6P; higher = faster cleavage; RNA array
# In short: as §1
Variant,kcat (glucosamine-6-phosphate [1]),KM (glucosamine-6-phosphate [2]),self-cleavage kobs at 640 uM GlcN6P (glucosamine-6-phosphate [3]),self-cleavage kobs at 2500 uM GlcN6P (glucosamine-6-phosphate [4]),self-cleavage kobs at 10000 uM GlcN6P (glucosamine-6-phosphate [5]),self-cleavage kobs at 160 uM GlcN6P (glucosamine-6-phosphate [6]),self-cleavage kobs at 40 uM GlcN6P (glucosamine-6-phosphate [7])
C11A U56A,0.000143 ± 1.9e-06 s⁻¹,2090 ± 78 µM,3.27e-05 ± 1e-05 s⁻¹,7.89e-05 ± 1.5e-05 s⁻¹,0.000118 ± 1.3e-05 s⁻¹,,
C16A C71A,0.000128 ± 2e-05 s⁻¹,,7.22e-05 ± 1.1e-05 s⁻¹,0.000187 ± 3.1e-05 s⁻¹,0.000114 ± 1.2e-05 s⁻¹,3.26e-05 ± 1.3e-05 s⁻¹,
A12U A48G,0.000185 ± 3.6e-05 s⁻¹,,9.16e-05 ± 1.3e-05 s⁻¹,0.000246 ± 3e-05 s⁻¹,0.000156 ± 1.5e-05 s⁻¹,2.8e-05 ± 1.2e-05 s⁻¹,
G29A A53C,0.000592 ± 0.0002 s⁻¹,,0.000185 ± 5.1e-05 s⁻¹,0.00047 ± 0.00011 s⁻¹,,9.67e-05 ± 2.5e-05 s⁻¹,
C16U U31C,0.00735 ± 0.00094 s⁻¹,1980 ± 350 µM,0.00161 ± 0.00048 s⁻¹,0.0036 ± 0.00062 s⁻¹,0.00694 ± 0.0011 s⁻¹,0.000588 ± 0.00011 s⁻¹,0.000149 ± 2.1e-05 s⁻¹
A6C C34A G37A G38A G63U C68U C70G,1.43e-05 ± 4.9e-06 s⁻¹,,< 1e-05 s⁻¹,,,,
U31A A39G,0.0529 ± 0.014 s⁻¹,4340 ± 1300 µM,0.00495 ± 0.0018 s⁻¹,0.0245 ± 0.0078 s⁻¹,0.0363 ± 0.0095 s⁻¹,0.00202 ± 0.00038 s⁻¹,0.000491 ± 7.7e-05 s⁻¹
U46C A53U,0.00168 ± 0.00018 s⁻¹,1640 ± 260 µM,0.000471 ± 9.9e-05 s⁻¹,0.0012 ± 0.00023 s⁻¹,0.00133 ± 0.00028 s⁻¹,0.000145 ± 3.3e-05 s⁻¹,3.88e-05 ± 1.2e-05 s⁻¹
A39U U57A,0.0002 ± 1.2e-05 s⁻¹,4780 ± 530 µM,2.12e-05 ± 7.4e-06 s⁻¹,7.13e-05 ± 1e-05 s⁻¹,0.000134 ± 1.5e-05 s⁻¹,,
C16G U54G,0.00297 ± 0.00074 s⁻¹,1080 ± 460 µM,0.00211 ± 0.0008 s⁻¹,0.00175 ± 0.0004 s⁻¹,0.00291 ± 0.00046 s⁻¹,0.000312 ± 6.7e-05 s⁻¹,0.000177 ± 3.8e-05 s⁻¹
A39G C58U,7.06e-05 ± 1.1e-06 s⁻¹,2990 ± 150 µM,,3.24e-05 ± 1.1e-05 s⁻¹,5.43e-05 ± 8.5e-06 s⁻¹,,< 1e-05 s⁻¹
G41C C71G,6.73e-05 ± 1.3e-05 s⁻¹,,,6.12e-05 ± 7.2e-06 s⁻¹,5.71e-05 ± 4.9e-06 s⁻¹,,
U56A G60A,2.59e-05 ± 2.9e-06 s⁻¹,,,,2.33e-05 ± 1.2e-05 s⁻¹,,
C11U U65G,0.000263 ± 6.3e-05 s⁻¹,2580 ± 1200 µM,6.28e-05 ± 3.1e-05 s⁻¹,,0.000227 ± 9.2e-05 s⁻¹,,< 1e-05 s⁻¹
